Patent US6531312

T1: GST-Cdc25C, P30307
T1 chain: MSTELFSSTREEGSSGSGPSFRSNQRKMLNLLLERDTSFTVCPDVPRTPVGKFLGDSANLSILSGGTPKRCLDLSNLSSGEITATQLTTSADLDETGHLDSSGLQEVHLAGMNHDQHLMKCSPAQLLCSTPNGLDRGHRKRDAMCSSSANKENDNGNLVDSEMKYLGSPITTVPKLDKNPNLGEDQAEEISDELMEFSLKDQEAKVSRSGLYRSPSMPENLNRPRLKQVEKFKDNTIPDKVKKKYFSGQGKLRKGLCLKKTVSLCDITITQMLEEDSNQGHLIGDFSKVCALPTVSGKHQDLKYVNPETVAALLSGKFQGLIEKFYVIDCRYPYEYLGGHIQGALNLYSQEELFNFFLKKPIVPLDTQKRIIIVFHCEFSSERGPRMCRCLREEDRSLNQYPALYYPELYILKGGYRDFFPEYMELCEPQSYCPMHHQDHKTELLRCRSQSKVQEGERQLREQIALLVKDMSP


Tests used:
[1] = molecular target: T1, GST-Cdc25C, P30307
[2] = molecular target: 6his-Cdc2, P06493
6his-Cdc2, P06493, sequence (P06493 whole entry, looked up): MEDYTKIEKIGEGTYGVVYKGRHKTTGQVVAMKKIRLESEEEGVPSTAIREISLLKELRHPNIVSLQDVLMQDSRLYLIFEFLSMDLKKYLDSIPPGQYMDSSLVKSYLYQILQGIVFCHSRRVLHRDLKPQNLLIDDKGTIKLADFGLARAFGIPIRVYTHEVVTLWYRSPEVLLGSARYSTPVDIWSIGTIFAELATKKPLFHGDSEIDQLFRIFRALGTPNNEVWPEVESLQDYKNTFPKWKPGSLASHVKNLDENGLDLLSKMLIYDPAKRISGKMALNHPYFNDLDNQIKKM

Row | Protein | GST-Cdc25 phosphatase activity (loss of slower migrating phosphorylated forms of Cdc2 on gel) [1] | phosphorylation of GST-Cdc25 (32P ATP, SDS-PAGE, autoradiography) [1] | dephosphorylation of Cdc2 (gel-mobility analysis) [2]
1 | 6his-Chk1 (protein) MAVPFVEDWDLVQTLGEGAYGEVQLAVNRVTEEAVAVKIVDMKRAVDCPENIKKEICINKMLNHENVVKFYGHRREGNIQYLFLEYCSGGELFDRIEPDIGMPEPDAQRFFHQLMAGVVYLHGIGITHRDIKPENLLLDERDNLKISDFGLATVFRYNNRERLLNKMCGTLPYVAPELLKRREFHAEPVDVWSCGIVLTAMLAGELPWDQPSDSCQEYSDWKEKKTYLNPWKKIDSAPLALLHKILVENPSARITIPDIKKDRWYNKPLKKGAKRPRVTSGGVSESPSGFSKHIQSNLDFSPVNSASSEENVKYSSSQPEPRTGLSLWDTSPSYIDKLVQGISFSQPTCPDHMLLNSQLLGTPGSSQNPWQRLVKRMTRFFTKLDADKSYQCLKETCEKLGYQWKKSCMNQVTISTTDRRNNKLIFKVNLLEMDDKILVDFRLSKGDGLEFKRHFLKIKGKLIDIVSSQKIWLPAT | Prior phosphorylation of GST-Cdc25 by 6his-Chk1 leads to a dosedependent reduction in GST-Cdc25 activity | GST-Cdc25 was phosphorylated by 6his-Chk1 and by 6his-hCDS1 | –
2 | GST-Cdc25C (protein) MSTELFSSTREEGSSGSGPSFRSNQRKMLNLLLERDTSFTVCPDVPRTPVGKFLGDSANLSILSGGTPKRCLDLSNLSSGEITATQLTTSADLDETGHLDSSGLQEVHLAGMNHDQHLMKCSPAQLLCSTPNGLDRGHRKRDAMCSSSANKENDNGNLVDSEMKYLGSPITTVPKLDKNPNLGEDQAEEISDELMEFSLKDQEAKVSRSGLYRSPSMPENLNRPRLKQVEKFKDNTIPDKVKKKYFSGQGKLRKGLCLKKTVSLCDITITQMLEEDSNQGHLIGDFSKVCALPTVSGKHQDLKYVNPETVAALLSGKFQGLIEKFYVIDCRYPYEYLGGHIQGALNLYSQEELFNFFLKKPIVPLDTQKRIIIVFHCEFSSERGPRMCRCLREEDRSLNQYPALYYPELYILKGGYRDFFPEYMELCEPQSYCPMHHQDHKTELLRCRSQSKVQEGERQLREQIALLVKDMSP | – | – | GST-Cdc25 catalyses a reduction in the slower migrating phosphorylated forms of Cdc2
